Where a chain is given by its changes, count along the chain named. Names and notes keep the numbering of the source. No end group written: not given here. TMR = tetramethyl rhodamine dye

Common to all, as to experiment: fluorescence polarisation; 25 °C; unlabeled Rb^P titrated against 1.5 nM TMR-E2F1^TD or 7.5 nM TMR-E7^LxCxE; 25 mM Tris pH 8.0, 200 mM NaCl, 1 mM DTT, 0.1% Tween-20; 2 min incubation; quadratic fit; apparent Kd for the variants, Kd for WT
Holding throughout (conditions): both partners purified
(In general: In fluorescence polarisation assays a small probe gives low polarisation when free and higher when bound to something large.)

The target of one test is T1, Rb^P K548N (human, UniProt P06400 380-788, K548N).
T1 construct: also called variant 26
T1 sequence (looked up): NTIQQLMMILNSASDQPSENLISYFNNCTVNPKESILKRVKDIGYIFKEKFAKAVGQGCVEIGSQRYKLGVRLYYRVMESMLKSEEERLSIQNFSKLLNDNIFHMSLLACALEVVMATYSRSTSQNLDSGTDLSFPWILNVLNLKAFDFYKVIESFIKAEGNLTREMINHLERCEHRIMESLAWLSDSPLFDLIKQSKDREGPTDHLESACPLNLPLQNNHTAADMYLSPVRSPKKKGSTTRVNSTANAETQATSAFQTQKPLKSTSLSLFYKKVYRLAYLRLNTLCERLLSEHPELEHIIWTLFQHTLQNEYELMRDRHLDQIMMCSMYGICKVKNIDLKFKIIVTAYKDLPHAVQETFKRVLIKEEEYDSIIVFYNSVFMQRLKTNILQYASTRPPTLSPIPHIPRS

For another test, the target named is T2, Rb^P H555Y (human, UniProt P06400 380-788, H555Y).
T2 construct: also called variant 29
T2 sequence (looked up): T1 sequence (looked up) with N169K, H176Y

The target in another test is T3, Rb^P R611S (human, UniProt P06400 380-788, R611S).
T3 construct: also called variant 38
T3 sequence (looked up): T1 sequence (looked up) with N169K, R232S

For another test, the target named is T4, Rb^P I679F (human, UniProt P06400 380-788, I679F).
T4 construct: also called variant 57
T4 sequence (looked up): T1 sequence (looked up) with N169K, I300F

For the next test, the target named is T5, Rb^P L550I (human, UniProt P06400 380-788, L550I).
T5 construct: also called variant 27
T5 sequence (looked up): T1 sequence (looked up) with N169K, L171I

B1: TMR-E2F1^TD, peptide of the E2F1 transactivation domain (peptide)
peptide: {TMR}-GEGIRDLFDCDFGDLTPLD
notes: also called E2F^TD; source: synthetic peptide, bought: GenScript
Regarding B1, the Kd turned out to be 133 nM in the test with Rb^P K548N; 158 nM with Rb^P H555Y; 15 nM in the test with Rb^P R611S; 17 nM with Rb^P I679F; 41 nM with Rb^P L550I.

B2: TMR-E7^LxCxE, LxCxE peptide of the E7 oncoprotein from HPV (peptide)
peptide: DLYCYEQLN
modifications: also: TMR label, position not given here
notes: source: synthetic peptide, bought: GenScript
For B2, the Kd in the test with Rb^P K548N was 6 nM; in the test with Rb^P H555Y, 8 nM; in the test with Rb^P R611S, 5 nM; with Rb^P I679F it was 11 nM; with Rb^P L550I, 3 nM.
